# Laboratory results: patent US20210025901A1 (CALIFORNIA INSTITUTE OF TECHNOLOGY, published 2021)
# Bridge positions count the residues as written; N and C are the ends. Primed or numbered codes have the meaning given here. Ends that are not written are not given here. PEG3′ = not defined here
# T1: Full-length His-tagged IL-17F protein (ab167911, Abcam) (human, UniProt Q96PD4 31-163)
# T1 construct: Bought protein, called 'full-length'; also called human IL-17F protein; not shown: His tag
# T1 chain: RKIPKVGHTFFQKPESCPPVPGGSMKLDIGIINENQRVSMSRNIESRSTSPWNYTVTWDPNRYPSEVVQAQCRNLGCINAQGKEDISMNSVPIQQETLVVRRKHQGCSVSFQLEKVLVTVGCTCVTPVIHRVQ
# T2: Plasmodium falciparum Histidine Rich Protein-2 (Pf.HRP-2) (Plasmodium falciparum)
# T2 construct: The construct used in the assays is not described; the whole entry is named
# T2 chain: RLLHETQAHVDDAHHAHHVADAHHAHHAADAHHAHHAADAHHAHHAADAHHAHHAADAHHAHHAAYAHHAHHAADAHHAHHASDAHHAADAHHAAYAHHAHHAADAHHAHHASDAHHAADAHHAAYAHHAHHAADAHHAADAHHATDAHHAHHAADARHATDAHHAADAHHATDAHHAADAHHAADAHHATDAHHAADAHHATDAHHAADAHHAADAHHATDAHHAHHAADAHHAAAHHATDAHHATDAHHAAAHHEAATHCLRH
# T3: Full-length His-tagged IL-17A protein (ab166882, Abcam) (human, UniProt Q16552 24-155)
# T3 construct: Bought protein; it may not be the whole protein; also called human IL-17A protein; not shown: His tag
# T3 sequence: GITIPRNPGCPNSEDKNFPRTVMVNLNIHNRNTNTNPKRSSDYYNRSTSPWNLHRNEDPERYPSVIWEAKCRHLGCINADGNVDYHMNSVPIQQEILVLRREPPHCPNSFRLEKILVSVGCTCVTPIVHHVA
# T4: His-tagged IL-17F epitope scrambled N-terminal to click handle (C48S) (also: His6 tag, position and spacer not given here)
# T4 construct: Chemically synthesized, His6 handle; residues N-terminal to C48S (FFQKPES) scrambled
# T4 peptide: SQFEKFPSPPVPGGS
# B1: Biotin-PEG3-Cy(RSYNK)(SEQ ID NO:28) (peptide)
# peptide: RSYNK
# modifications: triazole N-C; not fully specified (N-terminus, C-terminus); also: flanking Pra and Az4 residues, sides not given here
# notes: also called PEG3-biotin-modified Cy(RSYNK)
# B2: Biotin-PEG3-Cy(RSYNK)(SEQ ID NO:28)-PEG3-Cy(RRATS)(SEQ ID NO:9) (designed binder)
# peptide 1: RSYNK
# peptide 2: RRATS
# modifications: not fully specified (N-terminus, bridges); also: macrocycles joined by PEG3 linker (one PEGylated amino acid), attachment not given here, triazole to a chain's N/C-terminus
# notes: Two macrocycles covalently joined by one PEGylated amino acid; also called biligand Cy(RSYNK)-PEG3-Cy(RRATS)
# B3: cy(YKYYR)(SEQ ID NO:29)-linker-cy(GWNVDL)(SEQ ID NO:30) biligand (designed binder)
# peptide 1: YKYYR
# peptide 2: GWNVDL
# modifications: not fully specified (bridges)
# notes: also called resultant biligand
# B4: Cy(QKHGP)(SEQ ID NO:15)-PEG3-biotin (peptide)
# peptide: QKHGP
# modifications: triazole (positions not given here); not fully specified (N-terminus, C-terminus, bridges); also: triazole cyclization via flanking Pra and Az4 residues, order not given here, PEG3-biotin, end not given here
# notes: also called PEG3-biotin-modified Cy(QKHGP)
# B5: Cy(TKHGP)(SEQ ID NO:16)-PEG3-biotin (peptide)
# peptide: TKHGP
# modifications: triazole (positions not given here); not fully specified (N-terminus, C-terminus, bridges); also: triazole cyclization via flanking Pra and Az4 residues, order not given here, PEG3-biotin, end not given here
# notes: also called PEG3-biotin-modified Cy(TKHGP)
# B6: Biotin-PEG3-Cy(RSYNK)(SEQ ID NO:28)-PEG2-Cy(RRATS)(SEQ ID NO:9) (designed binder)
# peptide 1: RSYNK
# peptide 2: RRATS
# modifications: triazole (positions not given here); not fully specified (N-terminus, bridges); also: each chain triazole-cyclized macrocycle, positions not given here, macrocycles joined by PEG2 linker, attachment points not given here
# B7: Biotin-PEG3-Cy(RSYNK)(SEQ ID NO:28)-PEG5-Cy(RRATS)(SEQ ID NO:9) (designed binder)
# peptide 1: RSYNK
# peptide 2: RRATS
# modifications: triazole (positions not given here); not fully specified (N-terminus, bridges); also: each chain triazole-cyclized macrocycle, positions not given here, macrocycles joined by PEG5 linker, attachment points not given here
# B8: YKYYR (SEQ ID NO:29) dimer (designed binder)
# peptide: YKYYR
# modifications: not fully specified (bridges)
# notes: also called two Cy(YKYYR) PCCs linked together with about a 1.5 nm long linker; linked biligand
# B9: Biotin-PEG3-Cy(KKGWP)(SEQ ID NO:23) (peptide)
# peptide: KKGWP
# modifications: triazole N-C; not fully specified (N-terminus, C-terminus); also: flanking Pra and Az4 residues, sides not given here
# notes: also called PEG3-biotin-modified Cy(KKGWP)
# B10: Cy(RRATS)(SEQ ID NO:9)-PEG3-biotin (peptide)
# peptide: RRATS-{PEG3′-biotin}
# modifications: triazole N-C; also: flanking Pra and Az4 residues, sides not given here
# notes: also called PEG3-biotin-modified Cy(RRATS)
# B11: Cy(RRAQS)(SEQ ID NO:10)-PEG3-biotin (peptide)
# peptide: RRAQS-{PEG3′-biotin}
# modifications: triazole N-C; also: flanking Pra and Az4 residues, sides not given here
# notes: also called PEG3-biotin-modified Cy(RRAQS)
# Assays:
# [1] = target: T1, Full-length His-tagged IL-17F protein …; assay: point ELISA, His-IL-17F vs His-IL-17A at 100 nM
# [2] = target: T1, Full-length His-tagged IL-17F protein …; assay: method not stated, FIG. 12C; biligand with PEG3 linker
# [3] = target: T1, Full-length His-tagged IL-17F protein …; assay: fluorescence titration of IL17F protein (nM) against the biotinylated biligand; protocol not described for this figure; the arrow from the number points to the PEG3 entry of the legend box
# [4] = target: T2, Plasmodium falciparum Histidine Rich …; assay: plot 'Affinity': fraction bound against [Pf.HRP2] (molar); protocol not described
# [5] = target: T3, Full-length His-tagged IL-17A protein …; assay: point ELISA, IL17F or IL17A at 100 nM, mean subtracted fluorescence; protocol not described for this panel
# [6] = target: T3, Full-length His-tagged IL-17A protein …; assay: point ELISA: ligand on NeutrAvidin plate, His-tagged protein at 100 nM, anti-His-AP detection, subtracted fluorescence
# [7] = target: Full-length His-tagged IL-17F protein (ab167911, Abcam) (human) (UniProt Q96PD4); assay: fluorescence titration of IL17F protein (nM) against the biotinylated biligand; protocol not described for this figure
# [8] = target: T2, Plasmodium falciparum Histidine Rich …; assay: method not stated, FIG. 15; two Cy(YKYYR) joined by about a 1.5 nm linker
# [9] = target: T1, Full-length His-tagged IL-17F protein …; assay: point ELISA, His-IL-17F vs His-IL-17A at 200 and 50 nM
# [10] = target: T4, His-tagged IL-17F epitope scrambled …; assay: point ELISA: ligand on NeutrAvidin plate, His-tagged epitope peptide at 2 uM, anti-His-AP detection, no-epitope background subtracted
binder,measurement,setting,value
B1,selectivity for IL-17F over IL-17A,[1],4 ratio
B2,Kd,[2],0.25 nM
same,EC50,[3],~0.25 nM
B3,EC50,[4],0.542 nM
B4,binding result,[5],no binding (tested: 100 nM)
B5,binding result,[6],no binding (tested: 100 nM)
B6,EC50 (read off the curve),[7],4 nM
B7,EC50 (read off the curve),[7],4 nM
B8,EC50,[8],20 nM
B9,selectivity for IL-17F over IL-17A,[1],4 ratio
B10,selectivity for IL-17F over IL-17A,[9],2 ratio
same,binding result,[10],no binding (tested: 2 uM)
B11,selectivity for IL-17F over IL-17A,[9],2 ratio
same,binding result,[10],no binding (tested: 2 uM)
